This is an account of results in patent US20220127354A1 (Amgen, published 2022).

The target of experiment [1] is T1, rhCDH19(1-43)::FLAG::rhCDH19(44-772) (construct P, Rh EC1-5) (rhesus macaque, UniProt Q9H159 44-772 (human entry)).
T1 construct: leader (1-43 of the entry) left out; also called rhesus macaque Cadherin19
T1 chain: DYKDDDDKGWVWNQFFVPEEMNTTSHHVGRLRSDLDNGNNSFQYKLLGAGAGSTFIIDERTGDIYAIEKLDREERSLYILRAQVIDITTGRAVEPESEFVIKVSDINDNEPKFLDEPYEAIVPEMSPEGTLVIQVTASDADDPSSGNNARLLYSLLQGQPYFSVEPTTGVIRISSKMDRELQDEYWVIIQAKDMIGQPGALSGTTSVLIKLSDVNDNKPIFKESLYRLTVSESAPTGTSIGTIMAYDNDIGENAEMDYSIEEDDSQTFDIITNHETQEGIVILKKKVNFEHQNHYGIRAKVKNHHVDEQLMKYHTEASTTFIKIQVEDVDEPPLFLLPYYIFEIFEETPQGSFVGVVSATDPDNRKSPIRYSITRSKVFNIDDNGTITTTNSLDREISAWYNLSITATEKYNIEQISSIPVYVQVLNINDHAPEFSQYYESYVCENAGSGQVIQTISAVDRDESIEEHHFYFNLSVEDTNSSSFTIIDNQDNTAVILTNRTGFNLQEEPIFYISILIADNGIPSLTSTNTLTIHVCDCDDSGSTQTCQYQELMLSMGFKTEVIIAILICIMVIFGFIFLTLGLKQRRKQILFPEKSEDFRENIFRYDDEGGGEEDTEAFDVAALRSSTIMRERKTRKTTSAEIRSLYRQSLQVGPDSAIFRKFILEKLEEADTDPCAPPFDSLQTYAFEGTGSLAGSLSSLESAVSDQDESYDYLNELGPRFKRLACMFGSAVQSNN
Put plainly: flow cytometry, transfected 293T cells, 2 mM CaCl2. (In flow cytometry, cells or beads pass a laser one at a time.)
Protocol: (§1) The following binding assay was completed in presence of 2 mM CaCl₂). […] Cells were then washed one time and the amount of cell associated Alexa647-labelled Ab was quantitated by flow cytometry. The experiments included mock transfected controls.

A further experiment deals with T2, Cyno Cadherin-19 (cynomologous monkey (Macaca …, UniProt Q9H159 44-772 (human entry))).
T2 construct: also called cynomologous monkey CDH-19
T2 chain: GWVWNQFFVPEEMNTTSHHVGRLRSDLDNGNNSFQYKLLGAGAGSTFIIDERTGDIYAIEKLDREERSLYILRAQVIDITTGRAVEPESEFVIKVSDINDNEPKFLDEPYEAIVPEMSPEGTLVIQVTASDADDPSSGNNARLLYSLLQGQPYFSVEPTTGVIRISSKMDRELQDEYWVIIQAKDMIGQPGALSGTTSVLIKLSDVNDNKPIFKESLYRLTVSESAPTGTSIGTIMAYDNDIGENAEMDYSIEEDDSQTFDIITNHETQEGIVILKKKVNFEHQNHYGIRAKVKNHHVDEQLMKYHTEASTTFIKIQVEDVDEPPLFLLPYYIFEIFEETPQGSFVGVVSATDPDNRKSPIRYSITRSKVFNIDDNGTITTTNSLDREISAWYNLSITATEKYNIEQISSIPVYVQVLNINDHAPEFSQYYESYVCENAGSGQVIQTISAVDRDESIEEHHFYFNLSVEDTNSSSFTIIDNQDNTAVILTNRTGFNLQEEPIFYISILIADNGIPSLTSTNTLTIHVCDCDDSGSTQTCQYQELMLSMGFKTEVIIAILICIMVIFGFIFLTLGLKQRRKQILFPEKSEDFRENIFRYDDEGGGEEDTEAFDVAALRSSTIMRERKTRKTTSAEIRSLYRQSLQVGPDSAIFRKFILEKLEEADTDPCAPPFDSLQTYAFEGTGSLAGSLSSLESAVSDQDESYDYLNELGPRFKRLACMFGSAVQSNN
Put plainly: FACS, recombinant cynomologous CDH-19.

Experiment [2] concerns the target T3, raCDH19(1-43)::FLAG::raCDH19(44-770) (construct W, Ra EC1-5) (rat).
T3 construct: leader (1-43 of the entry) left out; also called rat Cadherin19
T3 chain: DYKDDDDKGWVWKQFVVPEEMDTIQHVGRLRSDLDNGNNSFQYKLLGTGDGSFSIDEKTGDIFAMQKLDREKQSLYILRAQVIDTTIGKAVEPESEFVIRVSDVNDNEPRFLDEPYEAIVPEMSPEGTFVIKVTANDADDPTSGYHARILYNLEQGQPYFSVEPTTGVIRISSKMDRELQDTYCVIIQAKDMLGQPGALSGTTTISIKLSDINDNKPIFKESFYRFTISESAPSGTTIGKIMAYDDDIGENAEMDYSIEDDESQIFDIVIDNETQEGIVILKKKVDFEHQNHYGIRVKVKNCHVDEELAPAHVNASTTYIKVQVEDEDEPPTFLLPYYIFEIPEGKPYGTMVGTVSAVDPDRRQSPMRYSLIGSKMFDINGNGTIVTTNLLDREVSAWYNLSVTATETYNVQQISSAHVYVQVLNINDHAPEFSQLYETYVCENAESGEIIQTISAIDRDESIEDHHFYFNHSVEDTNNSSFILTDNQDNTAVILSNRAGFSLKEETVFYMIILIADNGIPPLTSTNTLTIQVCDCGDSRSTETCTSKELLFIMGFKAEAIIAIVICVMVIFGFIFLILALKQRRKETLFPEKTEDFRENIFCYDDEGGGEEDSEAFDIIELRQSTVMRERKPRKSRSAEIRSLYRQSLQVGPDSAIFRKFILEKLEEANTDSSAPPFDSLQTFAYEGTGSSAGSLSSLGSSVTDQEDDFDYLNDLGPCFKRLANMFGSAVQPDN
The experiment is described as follows: flow cytometry, transfected 293T cells, 2 mM CaCl2.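 Also: antibody binding read out as cell-bound Alexa647 label signal, with mock-transfected cells as controls.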
Protocol: as §1

Experiment [3] concerns the target T4, huCDH19(44-141)::muCDH19(140-770) with Flag tag (construct B, Hu EC1) (human/mouse chimera).
T4 construct: leader left out; the entry starts at residue 44; also called C137897
The experiment is described as follows: flow cytometry, transfected 293T cells.
Description: (§2) The experiment included assaying the anti-CDH19 antibodies against mouse Cadherin19 to determine suitability for binning on these human/mouse chimeras.

The target in experiment [4] is T5, huCDH19(44-249)::muCDH19(248-770) with Flag tag (construct C, Hu EC1-2) (human/mouse chimera).
T5 construct: leader left out; the entry starts at residue 44; also called C137896
Put plainly: flow cytometry, transfected 293T cells.
Description: as §2

Numbering of substitutions follows the chain as printed. Names and notes keep the numbering of the source.

B1: anti-CDH19 antibody 4A2 (Ab ID 13592) (antibody, human IgG1, kappa, V domains shown)
VH: QVQLQESGPGLVKPSQTLSLTCTVSGGSISSSGYYWSWIRQHPGKGLEWIGYIYYTGSAYYNPSLKSRVTISVDTSKNQFSLKLSSVTAADTAVYYCARDGSSGWYFQYWGQGTLVTVSS
VL: EIVLTQSPGTLSLSPGERATLSCRASRNISSSYLAWYQQKPGQAPRLLIYGPSSRATGIPDRFSGSGSGTDFTLTISRLEPEDFTVYYCQQYGSSFTFGPGTKVDIKR
notes: Bin 4
On to B1, for which the binding result (in experiment [1]; in the experiment with Cyno Cadherin-19) was “binds” throughout.

B2: anti-CDH19 antibody 2G6 (Ab ID 13588) (antibody, human IgG1, lambda, V domains shown)
VH: QVQLVESGGGVVQPGRSLRLSCAASGFTFSSYGMHWVRQAPGKGLEWVAFIWYDGSNKYYADSVKDRFTISRDNSKNTLYLQMKSLRAEDTAVYYCARRAGIIGTIGYYYGMDVWGQGTTVTVSS
VL: SYELTQPPSVSVSPGQTASITCSGDRLGEKYTCWYQQRPGQSPLLVIYQDTKRPSGIPERFSGSNSGNTATLTISGTQAMDEADYYCQAWDSSTVVFGGGTKLTVLG
notes: Bin 4
Turning to B2, the binding result (in experiment [2]; in experiment [1]; with Cyno Cadherin-19; in experiment [3]; in experiment [4]) was “binds” in each case.

B3: hu anti-<huCDH19> 23A10.3 (1-474)(L92Q) VH::huIgG1z + 23A10.3 (1-231)(C42S) VL::huLLC-C2 (Ab ID 14077) (antibody, V domains shown)
VH: B2 VH with S31R, M34I, F50V, D66G, K84N, T91S, I103P, I106T
VL: B2 VL with T32V, C33S, R38K, L44I, T51N, R53W
notes: Engineered variant of 23A10; the entries already carry the changes; Bin 4
B3: the binding result in experiment [2] and in experiment [1] was “binds” throughout.

B4: hu anti-<huCDH19> 4B10 (Ab ID 13590) (antibody, V domains shown)
VH: QVQLVESGGGVVQPGRSLRLSCAASGFTFSSYDMHWVRQAPGKGLEWVAVISYDGTNEYYADSVKGRFTISRDTSKNTLYLQMNSLRAEDTAVYYCARERYFDWSFDYWGQGTLVSVSS
VL: EIVLTQSPGTLSLSPGERATLSCRASQSVSNTYLAWYHQRPGQAPRLLIYGASSRATGIPDRFSGSGSGTDFALTISSLEPEDFAVYYCQQYSNSWTFGQGTKVEIKR
notes: huIgG1z / huKLC; Bin 4
With B4, the binding result (in experiment [2]; in experiment [1]; with Cyno Cadherin-19) was “binds” in each case.

B5: hu anti-<huCDH19> 26D1.1 (Ab ID 13882) (antibody, human IgG1, lambda, V domains shown)
VH: QVQLVQSGAEVKKPGASVKVSCKASRYTFTSYYMSWVRQAPGQGLEWMGIIHPSGGDTTYAQKFQGRVTMTGDTSTSTVYMELSSLRSEDTAVYYCARGGIKLWLHFDYWGQGTLVTVSS
VL: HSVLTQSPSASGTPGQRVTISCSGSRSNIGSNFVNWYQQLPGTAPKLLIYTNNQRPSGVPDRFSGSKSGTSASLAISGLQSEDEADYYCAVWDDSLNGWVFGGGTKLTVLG
notes: huIgG1z / huLLC-C2; Bin 2
Consider B5, for which the binding result in experiment [2] is listed as “no binding (tested: 5 ug/ml)”; in experiment [1] it was “binds”; in the experiment with Cyno Cadherin-19 it was “binds”; in experiment [3], “binds”; in experiment [4], “binds”.

B6: hu anti-<huCDH19> 25F8.1 (1-469)(F90Y) VH::huIgG1z + 25F8.1 (1-235)(K45Q,S102A,D111E) VL::huLLC-C2 (Ab ID 14096) (antibody, V domains shown)
VH: B5 VH with R26G, M34I, S35H, H52N, D57S, T59R, G72R, K102Q
VL: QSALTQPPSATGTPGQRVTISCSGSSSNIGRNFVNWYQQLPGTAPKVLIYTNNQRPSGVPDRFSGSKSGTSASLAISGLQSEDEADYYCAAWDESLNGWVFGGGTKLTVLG
notes: Engineered variant of 25F8; the entries already carry the changes; Bin 2
For the molecule B6, the results for the binding result in experiment [2] and in experiment [1] were “no binding (tested: 5 ug/ml)” and “binds”, respectively.

B7: hu anti-<huCDH19> 4A9 (Ab ID 13589) (antibody, human IgG1, lambda, V domains shown)
VH: QVQLQESGPGLVKPSETLSLTCTVSGGSISGYYWSWIRQPPGKGLEWFAYFSYSGSTNYNPSLKSRVTLSVDTSKNQFSLKLSSVTAADTAVYYCARNWAFHFDFWGQGTLVTVSS
VL: QSVLTQPPSVSGAPGQRVTISCTGSSSNIGTGYAVHWYQQFPGTAPKLLIYGNNNRPSGVPDRFSGSKSGTSASLAITGLQAEDEADYYCQSYDSRLSGWVFGGGTKLTVLG
notes: huIgG1z / huLLC-C1; Bin 1
For the molecule B7, the binding result in experiment [2] is reported as “no binding (tested: 5 ug/ml)”; in experiment [1], “binds”; in the experiment with Cyno Cadherin-19 it was “binds”; in experiment [3], “binds”; in experiment [4], “binds”.
